Results published in patent US20100159560.

What was measured:
[1] = molecular target: T1, protransglutaminase of Streptoverticillium mobaraense IFO13819 (pro-MTG) (UniProt P81453)
T1 sequence: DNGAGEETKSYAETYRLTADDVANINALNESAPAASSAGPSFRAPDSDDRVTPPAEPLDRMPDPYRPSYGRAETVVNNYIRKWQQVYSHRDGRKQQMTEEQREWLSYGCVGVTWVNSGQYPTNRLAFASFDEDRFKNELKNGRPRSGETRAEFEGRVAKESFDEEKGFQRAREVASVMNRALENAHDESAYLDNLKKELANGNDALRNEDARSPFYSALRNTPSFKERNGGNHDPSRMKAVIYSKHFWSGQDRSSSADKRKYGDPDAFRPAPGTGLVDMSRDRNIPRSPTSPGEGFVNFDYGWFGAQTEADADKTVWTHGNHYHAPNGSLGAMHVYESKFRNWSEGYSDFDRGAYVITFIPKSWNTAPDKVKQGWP

[2] = molecular target: T2, Streptomyces subtilisin inhibitor (SSI) derived from actinomycetes (UniProt P01006)
T2 sequence: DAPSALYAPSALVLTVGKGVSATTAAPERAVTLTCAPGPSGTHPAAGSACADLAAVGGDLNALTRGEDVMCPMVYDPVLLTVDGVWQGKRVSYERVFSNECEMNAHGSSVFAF

Substance | conversion of pro-MTG to mature MTG (SDS-PAGE time course; TG activity by the hydroxamate method), substrate:enzyme = 200:1 [1] | cleavage points (HPLC separation and sequencing of peptide fragments) (insulin B) | relative activity (Gly-Pro-Ser-Phe-Arg-Ala-Pro-Asp-Ser cleavage activity, absence of compounds = 100%) [2] | amount of protease needed to convert pro-MTG to active MTG (TG activity by the hydroxamate method, MTG protein by reverse phase chromatography) [1] | cleavage points (HPLC separation and sequencing of peptide fragments) [1] | amount of protease needed to convert pro-MTG to active MTG (TG activity by the hydroxamate method) [1]
neutral metalloprotease SGMP II from Streptomyces griseus | pro-MTGs were converted to the mature forms, and the produced MTGs were not reduced even after a long-term reaction |  |  |  |  | 
neutral metalloprotease SVP70 from Streptoverticillium mobaraense IFO13819 | pro-MTGs were converted to the mature forms, and the produced MTGs were not reduced even after a long-term reaction | cleaved before (at N-terminal side of) especially Phe, often Leu, sometimes Tyr, Trp, Ile, Val | underwent strong inhibitory action | SVP could convert pro-MTG to active MTG with an amount as small as 1/500 of the substrate | cleaved before (at N-terminal side of) especially Phe, often Leu, sometimes Tyr, Trp, Ile, Val | 
serine protease SAM-P45 (Streptomyces albogriseolus) |  |  |  | when SAM-P45 was added at an amount of 1/10 of the substrate, the conversion into the active MTG was observed, but a decrease in the amount and the activity of MTG-protein was observed |  | generated only insufficient transglutaminase activity even at an amount of 1/50 of the substrate, and that the complete conversion to the active form was not observed
